For six molecules, EC50 [nM], 0% HSA and EC50 [nM], 0.1% HSA results are on record in patent US12679878B2, “CRF2 receptor agonists and their use in therapy” (SANOFI, priority 2020, dated 2026).

Starred links: 1 amine or outer side, 2 acyl side, 3 side chain; linkers in the order of their positions; H or OH if unused. Non-standard residues stand in square brackets, D forms with d. Groups on a side chain read outwards from the residue. No end group written: not given here. *: point of attachment. C18 diacid = O=C(O)CCCCCCCCCCCCCCCCC(=O)*; γGlu = O=C(O)[C@H](CCC(=O)[*:2])N[*:1]; Palmitoyl = CCCCCCCCCCCCCCCC(=O)*; AEEA = NCCOCCOCC(=O)O; Aib = CC(C)(N)C(=O)O

This test deals with human corticotropin-releasing factor 2α (CRF2 α receptor) (human), Q13324. Nature of the test: cell-based or functional assay.
Sequence of human corticotropin-releasing factor 2α (CRF2 α receptor) (human), Q13324 (Q13324 20-411): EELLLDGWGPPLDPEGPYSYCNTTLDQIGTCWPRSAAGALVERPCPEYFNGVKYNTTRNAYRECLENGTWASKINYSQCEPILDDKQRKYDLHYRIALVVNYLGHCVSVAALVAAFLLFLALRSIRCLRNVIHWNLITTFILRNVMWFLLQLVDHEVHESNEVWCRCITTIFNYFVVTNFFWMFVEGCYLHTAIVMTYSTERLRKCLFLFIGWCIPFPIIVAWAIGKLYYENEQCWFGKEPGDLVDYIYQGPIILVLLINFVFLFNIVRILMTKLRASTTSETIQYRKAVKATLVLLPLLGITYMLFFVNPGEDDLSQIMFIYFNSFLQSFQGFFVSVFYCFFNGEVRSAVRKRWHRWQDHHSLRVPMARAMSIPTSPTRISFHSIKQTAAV

B1: SEQ ID NO: 146 (peptide)
peptide: FTLSLDVPIKLK([AEEA-AEEA-γGlu-C18 diacid])QILLKQERQKKQRQKAKKNKQILERV-NH2
modifications: N-terminus assumed
SMILES: CC[C@H](C)[C@H](NC(=O)[C@H](CCC(N)=O)NC(=O)[C@H](CCCCNC(=O)COCCOCCNC(=O)COCCOCCNC(=O)CC[C@H](NC(=O)CCCCCCCCCCCCCCCCC(=O)O)C(=O)O)NC(=O)[C@H](CC(C)C)NC(=O)[C@H](CCCCN)NC(=O)[C@@H](NC(=O)[C@@H]1CCCN1C(=O)[C@@H](NC(=O)[C@H](CC(=O)O)NC(=O)[C@H](CC(C)C)NC(=O)[C@H](CO)NC(=O)[C@H](CC(C)C)NC(=O)[C@@H](NC(=O)[C@@H](N)Cc1ccccc1)[C@@H](C)O)C(C)C)[C@@H](C)CC)C(=O)N[C@@H](CC(C)C)C(=O)N[C@@H](CC(C)C)C(=O)N[C@@H](CCCCN)C(=O)N[C@@H](CCC(N)=O)C(=O)N[C@@H](CCC(=O)O)C(=O)N[C@@H](CCCNC(=N)N)C(=O)N[C@@H](CCC(N)=O)C(=O)N[C@@H](CCCCN)C(=O)N[C@@H](CCCCN)C(=O)N[C@@H](CCC(N)=O)C(=O)N[C@@H](CCCNC(=N)N)C(=O)N[C@@H](CCC(N)=O)C(=O)N[C@@H](CCCCN)C(=O)N[C@@H](C)C(=O)N[C@@H](CCCCN)C(=O)N[C@@H](CCCCN)C(=O)N[C@@H](CC(N)=O)C(=O)N[C@@H](CCCCN)C(=O)N[C@@H](CCC(N)=O)C(=O)N[C@H](C(=O)N[C@@H](CC(C)C)C(=O)N[C@@H](CCC(=O)O)C(=O)N[C@@H](CCCNC(=N)N)C(=O)N[C@H](C(N)=O)C(C)C)[C@@H](C)CC
On to B1, for which the EC50 [nM], 0% HSA was found to be 0.11 nM and the EC50 [nM], 0.1% HSA is 4.36 nM.

B2: SEQ ID NO: 145 (peptide)
peptide: FTLSLDVPTKIK([AEEA-AEEA-γGlu-C18 diacid])QILLKQERQKKQRQKAKKNKQILERV-NH2
modifications: N-terminus assumed
SMILES: CC[C@H](C)[C@H](NC(=O)[C@H](CCC(N)=O)NC(=O)[C@H](CCCCN)NC(=O)[C@H](CC(N)=O)NC(=O)[C@H](CCCCN)NC(=O)[C@H](CCCCN)NC(=O)[C@H](C)NC(=O)[C@H](CCCCN)NC(=O)[C@H](CCC(N)=O)NC(=O)[C@H](CCCNC(=N)N)NC(=O)[C@H](CCC(N)=O)NC(=O)[C@H](CCCCN)NC(=O)[C@H](CCCCN)NC(=O)[C@H](CCC(N)=O)NC(=O)[C@H](CCCNC(=N)N)NC(=O)[C@H](CCC(=O)O)NC(=O)[C@H](CCC(N)=O)NC(=O)[C@H](CCCCN)NC(=O)[C@H](CC(C)C)NC(=O)[C@H](CC(C)C)NC(=O)[C@@H](NC(=O)[C@H](CCC(N)=O)NC(=O)[C@H](CCCCNC(=O)COCCOCCNC(=O)COCCOCCNC(=O)CC[C@H](NC(=O)CCCCCCCCCCCCCCCCC(=O)O)C(=O)O)NC(=O)[C@@H](NC(=O)[C@H](CCCCN)NC(=O)[C@@H](NC(=O)[C@@H]1CCCN1C(=O)[C@@H](NC(=O)[C@H](CC(=O)O)NC(=O)[C@H](CC(C)C)NC(=O)[C@H](CO)NC(=O)[C@H](CC(C)C)NC(=O)[C@@H](NC(=O)[C@@H](N)Cc1ccccc1)[C@@H](C)O)C(C)C)[C@@H](C)O)[C@@H](C)CC)[C@@H](C)CC)C(=O)N[C@@H](CC(C)C)C(=O)N[C@@H](CCC(=O)O)C(=O)N[C@@H](CCCNC(=N)N)C(=O)N[C@H](C(N)=O)C(C)C
As for B2, the EC50 [nM], 0% HSA is 1.46 nM and the EC50 [nM], 0.1% HSA worked out at 96.9 nM.

B3: SEQ ID NO: 15 (peptide)
peptide: FTLSLDVPTKIK([γGlu-Palmitoyl])QKLFKQAKQKKQRQKAKTNAQILARV-NH2
modifications: N-terminus assumed
SMILES: CCCCCCCCCCCCCCCC(=O)N[C@@H](CCC(=O)NCCCC[C@H](NC(=O)[C@@H](NC(=O)[C@H](CCCCN)NC(=O)[C@@H](NC(=O)[C@@H]1CCCN1C(=O)[C@@H](NC(=O)[C@H](CC(=O)O)NC(=O)[C@H](CC(C)C)NC(=O)[C@H](CO)NC(=O)[C@H](CC(C)C)NC(=O)[C@@H](NC(=O)[C@@H](N)Cc1ccccc1)[C@@H](C)O)C(C)C)[C@@H](C)O)[C@@H](C)CC)C(=O)N[C@@H](CCC(N)=O)C(=O)N[C@@H](CCCCN)C(=O)N[C@@H](CC(C)C)C(=O)N[C@@H](Cc1ccccc1)C(=O)N[C@@H](CCCCN)C(=O)N[C@@H](CCC(N)=O)C(=O)N[C@@H](C)C(=O)N[C@@H](CCCCN)C(=O)N[C@@H](CCC(N)=O)C(=O)N[C@@H](CCCCN)C(=O)N[C@@H](CCCCN)C(=O)N[C@@H](CCC(N)=O)C(=O)N[C@@H](CCCNC(=N)N)C(=O)N[C@@H](CCC(N)=O)C(=O)N[C@@H](CCCCN)C(=O)N[C@@H](C)C(=O)N[C@@H](CCCCN)C(=O)N[C@H](C(=O)N[C@@H](CC(N)=O)C(=O)N[C@@H](C)C(=O)N[C@@H](CCC(N)=O)C(=O)N[C@H](C(=O)N[C@@H](CC(C)C)C(=O)N[C@@H](C)C(=O)N[C@@H](CCCNC(=N)N)C(=O)N[C@H](C(N)=O)C(C)C)[C@@H](C)CC)[C@@H](C)O)C(=O)O
In turn, B3 gave an EC50 [nM], 0% HSA of 0.88 nM.

B4: SEQ ID NO: 144 (peptide)
peptide: FTLSLDVPTKIK([AEEA-AEEA-γGlu-C18 diacid])QILLKQERQKKQRQKAKTNKQILERV-NH2
modifications: N-terminus assumed
SMILES: CC[C@H](C)[C@H](NC(=O)[C@H](CCC(N)=O)NC(=O)[C@H](CCCCN)NC(=O)[C@H](CC(N)=O)NC(=O)[C@@H](NC(=O)[C@H](CCCCN)NC(=O)[C@H](C)NC(=O)[C@H](CCCCN)NC(=O)[C@H](CCC(N)=O)NC(=O)[C@H](CCCNC(=N)N)NC(=O)[C@H](CCC(N)=O)NC(=O)[C@H](CCCCN)NC(=O)[C@H](CCCCN)NC(=O)[C@H](CCC(N)=O)NC(=O)[C@H](CCCNC(=N)N)NC(=O)[C@H](CCC(=O)O)NC(=O)[C@H](CCC(N)=O)NC(=O)[C@H](CCCCN)NC(=O)[C@H](CC(C)C)NC(=O)[C@H](CC(C)C)NC(=O)[C@@H](NC(=O)[C@H](CCC(N)=O)NC(=O)[C@H](CCCCNC(=O)COCCOCCNC(=O)COCCOCCNC(=O)CC[C@H](NC(=O)CCCCCCCCCCCCCCCCC(=O)O)C(=O)O)NC(=O)[C@@H](NC(=O)[C@H](CCCCN)NC(=O)[C@@H](NC(=O)[C@@H]1CCCN1C(=O)[C@@H](NC(=O)[C@H](CC(=O)O)NC(=O)[C@H](CC(C)C)NC(=O)[C@H](CO)NC(=O)[C@H](CC(C)C)NC(=O)[C@@H](NC(=O)[C@@H](N)Cc1ccccc1)[C@@H](C)O)C(C)C)[C@@H](C)O)[C@@H](C)CC)[C@@H](C)CC)[C@@H](C)O)C(=O)N[C@@H](CC(C)C)C(=O)N[C@@H](CCC(=O)O)C(=O)N[C@@H](CCCNC(=N)N)C(=O)N[C@H](C(N)=O)C(C)C
For B4, the EC50 [nM], 0% HSA was 1.36 nM and the EC50 [nM], 0.1% HSA is 76.3 nM.

B5: SEQ ID NO: 142 (peptide)
peptide: IVLSLD[dV]PIKLK([AEEA-AEEA-γGlu-C18 diacid])QILLEQARQK[Aib]QREQAEKNKRILERV-NH2
modifications: N-terminus assumed
SMILES: CC[C@H](C)[C@H](N)C(=O)N[C@H](C(=O)N[C@@H](CC(C)C)C(=O)N[C@@H](CO)C(=O)N[C@@H](CC(C)C)C(=O)N[C@@H](CC(=O)O)C(=O)N[C@@H](C(=O)N1CCC[C@H]1C(=O)N[C@H](C(=O)N[C@@H](CCCCN)C(=O)N[C@@H](CC(C)C)C(=O)N[C@@H](CCCCNC(=O)COCCOCCNC(=O)COCCOCCNC(=O)CC[C@H](NC(=O)CCCCCCCCCCCCCCCCC(=O)O)C(=O)O)C(=O)N[C@@H](CCC(N)=O)C(=O)N[C@H](C(=O)N[C@@H](CC(C)C)C(=O)N[C@@H](CC(C)C)C(=O)N[C@@H](CCC(=O)O)C(=O)N[C@@H](CCC(N)=O)C(=O)N[C@@H](C)C(=O)N[C@@H](CCCNC(=N)N)C(=O)N[C@@H](CCC(N)=O)C(=O)N[C@@H](CCCCN)C(=O)NC(C)(C)C(=O)N[C@@H](CCC(N)=O)C(=O)N[C@@H](CCCNC(=N)N)C(=O)N[C@@H](CCC(=O)O)C(=O)N[C@@H](CCC(N)=O)C(=O)N[C@@H](C)C(=O)N[C@@H](CCC(=O)O)C(=O)N[C@@H](CCCCN)C(=O)N[C@@H](CC(N)=O)C(=O)N[C@@H](CCCCN)C(=O)N[C@@H](CCCNC(=N)N)C(=O)N[C@H](C(=O)N[C@@H](CC(C)C)C(=O)N[C@@H](CCC(=O)O)C(=O)N[C@@H](CCCNC(=N)N)C(=O)N[C@H](C(N)=O)C(C)C)[C@@H](C)CC)[C@@H](C)CC)[C@@H](C)CC)C(C)C)C(C)C
For the molecule B5, the EC50 [nM], 0% HSA worked out at 0.05 nM and the EC50 [nM], 0.1% HSA turned out to be 1.42 nM.

B6: SEQ ID NO: 143 (peptide)
peptide: FTLSLDVPTKIK([AEEA-AEEA-γGlu-C18 diacid])QILLKQEKQKKQRQKAKTNKQILERV-NH2
modifications: N-terminus assumed
SMILES: CC[C@H](C)[C@H](NC(=O)[C@H](CCC(N)=O)NC(=O)[C@H](CCCCN)NC(=O)[C@H](CC(N)=O)NC(=O)[C@@H](NC(=O)[C@H](CCCCN)NC(=O)[C@H](C)NC(=O)[C@H](CCCCN)NC(=O)[C@H](CCC(N)=O)NC(=O)[C@H](CCCNC(=N)N)NC(=O)[C@H](CCC(N)=O)NC(=O)[C@H](CCCCN)NC(=O)[C@H](CCCCN)NC(=O)[C@H](CCC(N)=O)NC(=O)[C@H](CCCCN)NC(=O)[C@H](CCC(=O)O)NC(=O)[C@H](CCC(N)=O)NC(=O)[C@H](CCCCN)NC(=O)[C@H](CC(C)C)NC(=O)[C@H](CC(C)C)NC(=O)[C@@H](NC(=O)[C@H](CCC(N)=O)NC(=O)[C@H](CCCCNC(=O)COCCOCCNC(=O)COCCOCCNC(=O)CC[C@H](NC(=O)CCCCCCCCCCCCCCCCC(=O)O)C(=O)O)NC(=O)[C@@H](NC(=O)[C@H](CCCCN)NC(=O)[C@@H](NC(=O)[C@@H]1CCCN1C(=O)[C@@H](NC(=O)[C@H](CC(=O)O)NC(=O)[C@H](CC(C)C)NC(=O)[C@H](CO)NC(=O)[C@H](CC(C)C)NC(=O)[C@@H](NC(=O)[C@@H](N)Cc1ccccc1)[C@@H](C)O)C(C)C)[C@@H](C)O)[C@@H](C)CC)[C@@H](C)CC)[C@@H](C)O)C(=O)N[C@@H](CC(C)C)C(=O)N[C@@H](CCC(=O)O)C(=O)N[C@@H](CCCNC(=N)N)C(=O)N[C@H](C(N)=O)C(C)C
In turn, B6 showed an EC50 [nM], 0% HSA of 1.44 nM and an EC50 [nM], 0.1% HSA of 93.8 nM.
